# How the values were obtained:
# Assay in all cases: alanine scan, flow cytometry, HEK293-T;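 further: antibody binding to each alanine-substituted CD33 mutant expressed transiently in HEK293-T, read as fluorescence minus background, mean of duplicates, relative to wild-type CD33 set as 100%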
# [1] = molecular target: human CD33 N53A (human, UniProt P20138 18-364)
# [2] = molecular target: human CD33 S54A (human, UniProt P20138 18-364)
# [3] = molecular target: human CD33 V56A (human, UniProt P20138 18-364)
# [4] = molecular target: human CD33 E63A (human, UniProt P20138 18-364)
# [5] = molecular target: human CD33 G64A (human, UniProt P20138 18-364)
# [6] = molecular target: human CD33 D70A (human, UniProt P20138 18-364)
# [7] = molecular target: human CD33 V82A (human, UniProt P20138 18-364)
# [8] = molecular target: human CD33 Q83A (human, UniProt P20138 18-364)
# [9] = molecular target: human CD33 L92A (human, UniProt P20138 18-364)
# [10] = molecular target: human CD33 N100A (human, UniProt P20138 18-364)
# [11] = molecular target: human CD33 L103A (human, UniProt P20138 18-364)
# [12] = molecular target: human CD33 I105A (human, UniProt P20138 18-364)
# [13] = molecular target: human CD33 N113A (human, UniProt P20138 18-364)
# [14] = molecular target: human CD33 G114A (human, UniProt P20138 18-364)
# [15] = molecular target: human CD33 F118A (human, UniProt P20138 18-364)
# [16] = molecular target: human CD33 Y49A (human, UniProt P20138 18-364)
# [17] = molecular target: T1, human CD33 S128A (human, UniProt P20138 18-364)
# T1 construct: alanine scan clone, transfected HEK293-T
# [18] = molecular target: T2, human CD33 Q133A (human, UniProt P20138 18-364)
# T2 construct: alanine scan clone, transfected HEK293-T
# [19] = molecular target: T3, human CD33 H143A (human, UniProt P20138 18-364)
# T3 construct: alanine scan clone, transfected HEK293-T
# [20] = molecular target: T4, human CD33 K146A (human, UniProt P20138 18-364)
# T4 construct: alanine scan clone, transfected HEK293-T
# [21] = molecular target: T5, human CD33 L161A (human, UniProt P20138 18-364)
# T5 construct: alanine scan clone, transfected HEK293-T
# [22] = molecular target: T6, human CD33 T162A (human, UniProt P20138 18-364)
# T6 construct: alanine scan clone, transfected HEK293-T
# [23] = molecular target: T7, human CD33 C163A (human, UniProt P20138 18-364)
# T7 construct: alanine scan clone, transfected HEK293-T
# [24] = molecular target: T8, human CD33 S164A (human, UniProt P20138 18-364)
# T8 construct: alanine scan clone, transfected HEK293-T
# [25] = molecular target: T9, human CD33 W167A (human, UniProt P20138 18-364)
# T9 construct: alanine scan clone, transfected HEK293-T
# [26] = molecular target: T10, human CD33 G172A (human, UniProt P20138 18-364)
# T10 construct: alanine scan clone, transfected HEK293-T
# [27] = molecular target: T11, human CD33 S178A (human, UniProt P20138 18-364)
# T11 construct: alanine scan clone, transfected HEK293-T
# [28] = molecular target: T12, human CD33 A182S (human, UniProt P20138 18-364)
# T12 construct: alanine scan clone, transfected HEK293-T
# [29] = molecular target: T13, human CD33 P184A (human, UniProt P20138 18-364)
# T13 construct: alanine scan clone, transfected HEK293-T
# [30] = molecular target: T14, human CD33 G123A (human, UniProt P20138 18-364)
# T14 construct: alanine scan clone, transfected HEK293-T
# [31] = molecular target: T15, human CD33 L187A (human, UniProt P20138 18-364)
# T15 construct: alanine scan clone, transfected HEK293-T
# [32] = molecular target: T16, human CD33 G188A (human, UniProt P20138 18-364)
# T16 construct: alanine scan clone, transfected HEK293-T
# [33] = molecular target: T17, human CD33 P189A (human, UniProt P20138 18-364)
# T17 construct: alanine scan clone, transfected HEK293-T
# [34] = molecular target: T18, human CD33 T191A (human, UniProt P20138 18-364)
# T18 construct: alanine scan clone, transfected HEK293-T
# [35] = molecular target: T19, human CD33 S194A (human, UniProt P20138 18-364)
# T19 construct: alanine scan clone, transfected HEK293-T
# [36] = molecular target: T20, human CD33 T125A (human, UniProt P20138 18-364)
# T20 construct: alanine scan clone, transfected HEK293-T
# T20 sequence (P20138 18-364 T125A limits assumed): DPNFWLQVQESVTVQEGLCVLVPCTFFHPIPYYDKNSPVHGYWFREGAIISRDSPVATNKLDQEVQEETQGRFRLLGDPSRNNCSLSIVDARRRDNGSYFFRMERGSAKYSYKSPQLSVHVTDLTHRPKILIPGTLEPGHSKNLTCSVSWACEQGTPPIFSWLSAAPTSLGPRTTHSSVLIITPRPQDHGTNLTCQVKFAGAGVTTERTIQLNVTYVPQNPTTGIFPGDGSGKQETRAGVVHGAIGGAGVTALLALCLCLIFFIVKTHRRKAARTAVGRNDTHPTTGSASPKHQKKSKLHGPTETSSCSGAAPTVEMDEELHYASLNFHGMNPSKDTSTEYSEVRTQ
# human CD33 L103A, sequence (P20138 18-364 L103A limits assumed): as the sequence (P20138 18-364 T125A limits assumed) above, with L86A, A108T counted along it
# T12 sequence (P20138 18-364 A182S limits assumed): as the sequence (P20138 18-364 T125A limits assumed) above, with A108T, A165S counted along it
# human CD33 L92A, sequence (P20138 18-364 L92A limits assumed): as the sequence (P20138 18-364 T125A limits assumed) above, with L75A, A108T counted along it
# human CD33 N113A, sequence (P20138 18-364 N113A limits assumed): as the sequence (P20138 18-364 T125A limits assumed) above, with N96A, A108T counted along it
# T4 sequence (P20138 18-364 K146A limits assumed): as the sequence (P20138 18-364 T125A limits assumed) above, with A108T, K129A counted along it
# human CD33 D70A, sequence (P20138 18-364 D70A limits assumed): as the sequence (P20138 18-364 T125A limits assumed) above, with D53A, A108T counted along it
# human CD33 N53A, sequence (P20138 18-364 N53A limits assumed): as the sequence (P20138 18-364 T125A limits assumed) above, with N36A, A108T counted along it
# T8 sequence (P20138 18-364 S164A limits assumed): as the sequence (P20138 18-364 T125A limits assumed) above, with A108T, S147A counted along it
# human CD33 Q83A, sequence (P20138 18-364 Q83A limits assumed): as the sequence (P20138 18-364 T125A limits assumed) above, with Q66A, A108T counted along it
# human CD33 V82A, sequence (P20138 18-364 V82A limits assumed): as the sequence (P20138 18-364 T125A limits assumed) above, with V65A, A108T counted along it
# T14 sequence (P20138 18-364 G123A limits assumed): as the sequence (P20138 18-364 T125A limits assumed) above, with G106A, A108T counted along it
# T13 sequence (P20138 18-364 P184A limits assumed): as the sequence (P20138 18-364 T125A limits assumed) above, with A108T, P167A counted along it
# T3 sequence (P20138 18-364 H143A limits assumed): as the sequence (P20138 18-364 T125A limits assumed) above, with A108T, H126A counted along it
# T2 sequence (P20138 18-364 Q133A limits assumed): as the sequence (P20138 18-364 T125A limits assumed) above, with A108T, Q116A counted along it
# human CD33 G114A, sequence (P20138 18-364 G114A limits assumed): as the sequence (P20138 18-364 T125A limits assumed) above, with G97A, A108T counted along it
# T11 sequence (P20138 18-364 S178A limits assumed): as the sequence (P20138 18-364 T125A limits assumed) above, with A108T, S161A counted along it
# human CD33 Y49A, sequence (P20138 18-364 Y49A limits assumed): as the sequence (P20138 18-364 T125A limits assumed) above, with Y32A, A108T counted along it
# T17 sequence (P20138 18-364 P189A limits assumed): as the sequence (P20138 18-364 T125A limits assumed) above, with A108T, P172A counted along it
# T16 sequence (P20138 18-364 G188A limits assumed): as the sequence (P20138 18-364 T125A limits assumed) above, with A108T, G171A counted along it
# T18 sequence (P20138 18-364 T191A limits assumed): as the sequence (P20138 18-364 T125A limits assumed) above, with A108T, T174A counted along it
# T7 sequence (P20138 18-364 C163A limits assumed): as the sequence (P20138 18-364 T125A limits assumed) above, with A108T, C146A counted along it
# T9 sequence (P20138 18-364 W167A limits assumed): as the sequence (P20138 18-364 T125A limits assumed) above, with A108T, W150A counted along it
# human CD33 F118A, sequence (P20138 18-364 F118A limits assumed): as the sequence (P20138 18-364 T125A limits assumed) above, with F101A, A108T counted along it
# human CD33 S54A, sequence (P20138 18-364 S54A limits assumed): as the sequence (P20138 18-364 T125A limits assumed) above, with S37A, A108T counted along it
# human CD33 E63A, sequence (P20138 18-364 E63A limits assumed): as the sequence (P20138 18-364 T125A limits assumed) above, with E46A, A108T counted along it
# T19 sequence (P20138 18-364 S194A limits assumed): as the sequence (P20138 18-364 T125A limits assumed) above, with A108T, S177A counted along it
# human CD33 I105A, sequence (P20138 18-364 I105A limits assumed): as the sequence (P20138 18-364 T125A limits assumed) above, with I88A, A108T counted along it
# human CD33 G64A, sequence (P20138 18-364 G64A limits assumed): as the sequence (P20138 18-364 T125A limits assumed) above, with G47A, A108T counted along it
# human CD33 V56A, sequence (P20138 18-364 V56A limits assumed): as the sequence (P20138 18-364 T125A limits assumed) above, with V39A, A108T counted along it
# T10 sequence (P20138 18-364 G172A limits assumed): as the sequence (P20138 18-364 T125A limits assumed) above, with A108T, G155A counted along it
# T5 sequence (P20138 18-364 L161A limits assumed): as the sequence (P20138 18-364 T125A limits assumed) above, with A108T, L144A counted along it
# T15 sequence (P20138 18-364 L187A limits assumed): as the sequence (P20138 18-364 T125A limits assumed) above, with A108T, L170A counted along it
# T6 sequence (P20138 18-364 T162A limits assumed): as the sequence (P20138 18-364 T125A limits assumed) above, with A108T, T145A counted along it
# human CD33 N100A, sequence (P20138 18-364 N100A limits assumed): as the sequence (P20138 18-364 T125A limits assumed) above, with N83A, A108T counted along it
# T1 sequence (P20138 18-364 S128A limits assumed): as the sequence (P20138 18-364 T125A limits assumed) above, with A108T, S111A counted along it
Binder,Mean % WT Binding [1] [% WT binding],Mean % WT Binding [2] [% WT binding],Mean % WT Binding [3] [% WT binding],Mean % WT Binding [4] [% WT binding],Mean % WT Binding [5] [% WT binding],Mean % WT Binding [6] [% WT binding],Mean % WT Binding [7] [% WT binding],Mean % WT Binding [8] [% WT binding],Mean % WT Binding [9] [% WT binding],Mean % WT Binding [10] [% WT binding],Mean % WT Binding [11] [% WT binding],Mean % WT Binding [12] [% WT binding],Mean % WT Binding [13] [% WT binding],Mean % WT Binding [14] [% WT binding],Mean % WT Binding [15] [% WT binding],Mean % WT Binding [16] [% WT binding],Mean % WT Binding [17] [% WT binding],Mean % WT Binding [18] [% WT binding],Mean % WT Binding [19] [% WT binding],Mean % WT Binding [20] [% WT binding],other results
"Refmab #5 (antibody, V domains shown, Full-length format is human IgG1 Fc silent (PG-LALA); also made as Fab; The alanine scan used IgG or Fab) VH: QVQLVQSGAEVKKPGASVKVSCKASGYTFTNYDINWVRQAPGQGLEWIGWIYPGDGSTKYNEKFKAKATLTADTSTSTAYMELRSLRSDDTAVYYCASGYEDAMDYWGQGTTVTVSS VL: DIQMTQSPSSLSASVGDRVTINCKASQDINSYLSWFQQKPGKAPKTLIYRANRLVDGVPSRFSGSGSGQDYTLTISSLQPEDFATYYCLQYDEFPLTFGGGTKVEIK",97.6,146,93,140,136,112,122,97,127,165,91.6,41.7,64,79,11.1,20.6,–,–,–,–,–
"Refmab #5 (antibody, V domains shown, The alanine scan used IgG or Fab) VH: QVQLVQSGAEVKKPGASVKVSCKASGYTFTNYDINWVRQAPGQGLEWIGWIYPGDGSTKYNEKFKAKATLTADTSTSTAYMELRSLRSDDTAVYYCASGYEDAMDYWGQGTTVTVSS VL: DIQMTQSPSSLSASVGDRVTINCKASQDINSYLSWFQQKPGKAPKTLIYRANRLVDGVPSRFSGSGSGQDYTLTISSLQPEDFATYYCLQYDEFPLTFGGGTKVEIK",–,–,–,–,–,–,–,–,–,–,–,–,–,–,–,–,283,112,128,149,Mean % WT Binding [21]: 130 % WT binding; Mean % WT Binding [22]: 92.4 % WT binding; Mean % WT Binding [23]: 62 % WT binding; Mean % WT Binding [24]: 110 % WT binding; Mean % WT Binding [25]: 95.5 % WT binding; Mean % WT Binding [26]: 92.7 % WT binding; Mean % WT Binding [27]: 117 % WT binding; Mean % WT Binding [28]: 103 % WT binding; Mean % WT Binding [29]: 107 % WT binding; Mean % WT Binding [30]: 67.5 % WT binding; Mean % WT Binding [31]: 144 % WT binding; Mean % WT Binding [32]: 114 % WT binding; Mean % WT Binding [33]: 115 % WT binding; Mean % WT Binding [34]: 115 % WT binding; Mean % WT Binding [35]: 90.4 % WT binding; Mean % WT Binding [36]: 56.7 % WT binding
"Refmab #6 (antibody, V domains shown, Full-length format is human IgG1 Fc silent (PG-LALA); also made as Fab; The alanine scan used IgG or Fab) VH: QVQLQQPGAEVVKPGASVKMSCKASGYTFTSYYIHWIKQTPGQGLEWVGVIYPGNDDISYNQKFQGKATLTADKSSTTAYMQLSSLTSEDSAVYYCAREVRLRYFDVWGQGTTVTVSS VL: EIVLTQSPGSLAVSPGERVTMSCKSSQSVFFSSSQKNYLAWYQQIPGQSPRLLIYWASTRESGVPDRFTGSGSGTDFTLTISSVQPEDLAIYYCHQYLSSRTFGQGTKLEIK",96.8,83.6,113,90.9,92.9,80.3,110,108,85.3,83.9,61.5,25.5,89.7,106,4.9,113,–,–,–,–,–
"Refmab #6 (antibody, V domains shown, The alanine scan used IgG or Fab) VH: QVQLQQPGAEVVKPGASVKMSCKASGYTFTSYYIHWIKQTPGQGLEWVGVIYPGNDDISYNQKFQGKATLTADKSSTTAYMQLSSLTSEDSAVYYCAREVRLRYFDVWGQGTTVTVSS VL: EIVLTQSPGSLAVSPGERVTMSCKSSQSVFFSSSQKNYLAWYQQIPGQSPRLLIYWASTRESGVPDRFTGSGSGTDFTLTISSVQPEDLAIYYCHQYLSSRTFGQGTKLEIK",–,–,–,–,–,–,–,–,–,–,–,–,–,–,–,–,127,88.3,97.5,116,Mean % WT Binding [21]: 100 % WT binding; Mean % WT Binding [22]: 87.2 % WT binding; Mean % WT Binding [23]: 73.9 % WT binding; Mean % WT Binding [24]: 100 % WT binding; Mean % WT Binding [25]: 90.5 % WT binding; Mean % WT Binding [26]: 76.8 % WT binding; Mean % WT Binding [27]: 102 % WT binding; Mean % WT Binding [28]: 93.9 % WT binding; Mean % WT Binding [29]: 92.2 % WT binding; Mean % WT Binding [30]: 94.1 % WT binding; Mean % WT Binding [31]: 119 % WT binding; Mean % WT Binding [32]: 100 % WT binding; Mean % WT Binding [33]: 103 % WT binding; Mean % WT Binding [34]: 88.5 % WT binding; Mean % WT Binding [35]: 92.4 % WT binding; Mean % WT Binding [36]: 112 % WT binding

# From US20260242735A1 (UNIVERSIT T BASEL, published 2026)
